Measurements from US20220040297A1 (Chugai, published 2022).

Biological target: T1, CD3ε homodimer protein (human, UniProt P07766 23-126, limits assumed)
T1 construct: also called human CD3ε homodimer protein; CD3e homodimer
Test: SPR (Biacore T200, 25°C); CD3ε homodimer immobilized on CM4, one-arm antibody as analyte

T1 sequence (P07766 23-126 limits assumed): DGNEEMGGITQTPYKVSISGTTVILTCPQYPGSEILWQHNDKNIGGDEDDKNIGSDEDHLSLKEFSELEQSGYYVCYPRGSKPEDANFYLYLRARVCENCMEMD

Binder | Kd [nM]
NNS6f62 (antibody, one-arm antibody) heavy: QVQLVESGGGLVQPGRSLRLSCAASGFTFSNAWMHWVRQAPGKGLEWVAQIKDKSNNYATYYAESVKGRFTISRDDSKNSIYLQMNSLKTEDTAVYYCRYVHYAANGGTRHYYGVDAWGQGTTVTVSSASTKGPSVFPLAPSSKSTSGGTAALGCLVKDYFPEPVTVSWNSGALTSGVHTFPAVLQSSGLYSLSSVVTVPSSSLGTQTYICNVNHKPSNTKVDKKVEPKSCDKTHTCPPCPAPEAAGGPSVFLFPPKPKDTLMISRTPEVTCVVVDVSHEDPEVKFNWYVDGVEVHNAKTKPREEQYASTYRVVSVLTVLHQDWLNGKEYKCKVSNKALPAPIEKTISKAKGQPREPQVYTLPPSRCELTKNQVSLSCAVKGFYPSDIAVEWESNGQPENNYKTTPPVLDSDGSFFLVSKLTVDKSRWQQGNVFSCSVMHEALHNHYTQKSLSLSPDYKDDDDK EPKSSDKTHTCPPCPAPELLGGPSVFLFPPKPKDTLMISRTPEVTCVVVDVSHEDPEVKFNWYVDGVEVHNAKTKPREEQYNSTYRVVSVLTVLHQDWLNGKEYKCKVSNKALPAPIEKTISKAKGQPREPQVCTLPPSRDELTKNQVSLWCLVKGFYPSDIAVEWESNGQPENNYKTTPPVLDSDGSFFLYSKLTVDKSRWQQGNVFSCSVMHEALHNRYTQKSLSLSP light: DIVMTQSPLSLPVTPGEPASISCRSSQSLVHSNRNTYLHWYQQKPGQAPRLLIYKVSNRFSGVPDRFSGSGSGTDFTLKISRVEAEDVGVYYCGQGTQVPYTFGQGTKLEIKRTVAAPSVFIFPPSDEQLKSGTASVVCLLNNFYPREAKVQWKVDNALQSGNSQESVTEQDSKDSTYSLSSTLTLSKADYEKHKVYACEVTHQGLSSPVTKSFNRGEC | 61
NNS6f68 (antibody, one-arm antibody) heavy: QVQLVESGGGLVQPGRSLRLSCAASGFTFSNAWMHWVRQAPGKGLEWVAQIKDKSNNYATYYAESVKGRFTISRDDSKNSIYLQMNSLKTEDTAVYYCRYVHYAAVEWGRWYYGVDAWGQGTTVTVSSASTKGPSVFPLAPSSKSTSGGTAALGCLVKDYFPEPVTVSWNSGALTSGVHTFPAVLQSSGLYSLSSVVTVPSSSLGTQTYICNVNHKPSNTKVDKKVEPKSCDKTHTCPPCPAPEAAGGPSVFLFPPKPKDTLMISRTPEVTCVVVDVSHEDPEVKFNWYVDGVEVHNAKTKPREEQYASTYRVVSVLTVLHQDWLNGKEYKCKVSNKALPAPIEKTISKAKGQPREPQVYTLPPSRCELTKNQVSLSCAVKGFYPSDIAVEWESNGQPENNYKTTPPVLDSDGSFFLVSKLTVDKSRWQQGNVFSCSVMHEALHNHYTQKSLSLSPDYKDDDDK EPKSSDKTHTCPPCPAPELLGGPSVFLFPPKPKDTLMISRTPEVTCVVVDVSHEDPEVKFNWYVDGVEVHNAKTKPREEQYNSTYRVVSVLTVLHQDWLNGKEYKCKVSNKALPAPIEKTISKAKGQPREPQVCTLPPSRDELTKNQVSLWCLVKGFYPSDIAVEWESNGQPENNYKTTPPVLDSDGSFFLYSKLTVDKSRWQQGNVFSCSVMHEALHNRYTQKSLSLSP light: DIVMTQSPLSLPVTPGEPASISCRSSQSLVHSNRNTYLHWYQQKPGQAPRLLIYKVSNRFSGVPDRFSGSGSGTDFTLKISRVEAEDVGVYYCGQGTQVPYTFGQGTKLEIKRTVAAPSVFIFPPSDEQLKSGTASVVCLLNNFYPREAKVQWKVDNALQSGNSQESVTEQDSKDSTYSLSSTLTLSKADYEKHKVYACEVTHQGLSSPVTKSFNRGEC | 45
NNS6f71 (antibody, one-arm antibody) heavy: QVQLVESGGGLVQPGRSLRLSCAASGFTFSNAWMHWVRQAPGKGLEWVAQIKDKSNNYATYYAESVKGRFTISRDDSKNSIYLQMNSLKTEDTAVYYCRYVHYAAGWVLGSYYGVDAWGQGTTVTVSSASTKGPSVFPLAPSSKSTSGGTAALGCLVKDYFPEPVTVSWNSGALTSGVHTFPAVLQSSGLYSLSSVVTVPSSSLGTQTYICNVNHKPSNTKVDKKVEPKSCDKTHTCPPCPAPEAAGGPSVFLFPPKPKDTLMISRTPEVTCVVVDVSHEDPEVKFNWYVDGVEVHNAKTKPREEQYASTYRVVSVLTVLHQDWLNGKEYKCKVSNKALPAPIEKTISKAKGQPREPQVYTLPPSRCELTKNQVSLSCAVKGFYPSDIAVEWESNGQPENNYKTTPPVLDSDGSFFLVSKLTVDKSRWQQGNVFSCSVMHEALHNHYTQKSLSLSPDYKDDDDK EPKSSDKTHTCPPCPAPELLGGPSVFLFPPKPKDTLMISRTPEVTCVVVDVSHEDPEVKFNWYVDGVEVHNAKTKPREEQYNSTYRVVSVLTVLHQDWLNGKEYKCKVSNKALPAPIEKTISKAKGQPREPQVCTLPPSRDELTKNQVSLWCLVKGFYPSDIAVEWESNGQPENNYKTTPPVLDSDGSFFLYSKLTVDKSRWQQGNVFSCSVMHEALHNRYTQKSLSLSP light: DIVMTQSPLSLPVTPGEPASISCRSSQSLVHSNRNTYLHWYQQKPGQAPRLLIYKVSNRFSGVPDRFSGSGSGTDFTLKISRVEAEDVGVYYCGQGTQVPYTFGQGTKLEIKRTVAAPSVFIFPPSDEQLKSGTASVVCLLNNFYPREAKVQWKVDNALQSGNSQESVTEQDSKDSTYSLSSTLTLSKADYEKHKVYACEVTHQGLSSPVTKSFNRGEC | 51
NNS6f64 (antibody, one-arm antibody) heavy: QVQLVESGGGLVQPGRSLRLSCAASGFTFSNAWMHWVRQAPGKGLEWVAQIKDKSNNYATYYAESVKGRFTISRDDSKNSIYLQMNSLKTEDTAVYYCRYVHYAALVSLTVYYGVDAWGQGTTVTVSSASTKGPSVFPLAPSSKSTSGGTAALGCLVKDYFPEPVTVSWNSGALTSGVHTFPAVLQSSGLYSLSSVVTVPSSSLGTQTYICNVNHKPSNTKVDKKVEPKSCDKTHTCPPCPAPEAAGGPSVFLFPPKPKDTLMISRTPEVTCVVVDVSHEDPEVKFNWYVDGVEVHNAKTKPREEQYASTYRVVSVLTVLHQDWLNGKEYKCKVSNKALPAPIEKTISKAKGQPREPQVYTLPPSRCELTKNQVSLSCAVKGFYPSDIAVEWESNGQPENNYKTTPPVLDSDGSFFLVSKLTVDKSRWQQGNVFSCSVMHEALHNHYTQKSLSLSPDYKDDDDK EPKSSDKTHTCPPCPAPELLGGPSVFLFPPKPKDTLMISRTPEVTCVVVDVSHEDPEVKFNWYVDGVEVHNAKTKPREEQYNSTYRVVSVLTVLHQDWLNGKEYKCKVSNKALPAPIEKTISKAKGQPREPQVCTLPPSRDELTKNQVSLWCLVKGFYPSDIAVEWESNGQPENNYKTTPPVLDSDGSFFLYSKLTVDKSRWQQGNVFSCSVMHEALHNRYTQKSLSLSP light: DIVMTQSPLSLPVTPGEPASISCRSSQSLVHSNRNTYLHWYQQKPGQAPRLLIYKVSNRFSGVPDRFSGSGSGTDFTLKISRVEAEDVGVYYCGQGTQVPYTFGQGTKLEIKRTVAAPSVFIFPPSDEQLKSGTASVVCLLNNFYPREAKVQWKVDNALQSGNSQESVTEQDSKDSTYSLSSTLTLSKADYEKHKVYACEVTHQGLSSPVTKSFNRGEC | 78
NNS6f67 (antibody, one-arm antibody) heavy: QVQLVESGGGLVQPGRSLRLSCAASGFTFSNAWMHWVRQAPGKGLEWVAQIKDKSNNYATYYAESVKGRFTISRDDSKNSIYLQMNSLKTEDTAVYYCRYVHYAAGLLRAAYYGVDAWGQGTTVTVSSASTKGPSVFPLAPSSKSTSGGTAALGCLVKDYFPEPVTVSWNSGALTSGVHTFPAVLQSSGLYSLSSVVTVPSSSLGTQTYICNVNHKPSNTKVDKKVEPKSCDKTHTCPPCPAPEAAGGPSVFLFPPKPKDTLMISRTPEVTCVVVDVSHEDPEVKFNWYVDGVEVHNAKTKPREEQYASTYRVVSVLTVLHQDWLNGKEYKCKVSNKALPAPIEKTISKAKGQPREPQVYTLPPSRCELTKNQVSLSCAVKGFYPSDIAVEWESNGQPENNYKTTPPVLDSDGSFFLVSKLTVDKSRWQQGNVFSCSVMHEALHNHYTQKSLSLSPDYKDDDDK EPKSSDKTHTCPPCPAPELLGGPSVFLFPPKPKDTLMISRTPEVTCVVVDVSHEDPEVKFNWYVDGVEVHNAKTKPREEQYNSTYRVVSVLTVLHQDWLNGKEYKCKVSNKALPAPIEKTISKAKGQPREPQVCTLPPSRDELTKNQVSLWCLVKGFYPSDIAVEWESNGQPENNYKTTPPVLDSDGSFFLYSKLTVDKSRWQQGNVFSCSVMHEALHNRYTQKSLSLSP light: DIVMTQSPLSLPVTPGEPASISCRSSQSLVHSNRNTYLHWYQQKPGQAPRLLIYKVSNRFSGVPDRFSGSGSGTDFTLKISRVEAEDVGVYYCGQGTQVPYTFGQGTKLEIKRTVAAPSVFIFPPSDEQLKSGTASVVCLLNNFYPREAKVQWKVDNALQSGNSQESVTEQDSKDSTYSLSSTLTLSKADYEKHKVYACEVTHQGLSSPVTKSFNRGEC | 36
